# Results: US9187525B2, “Methods of treating ophthalmic diseases using NPR-B agonists” (Shire Orphan Therapies GmbH, dated 2015)
# Numbered stars: 1 amine (or outer) side, 2 acyl side, 3 side chain; on linkers, the order of the positions; unused ones are H or OH. Square brackets hold non-standard residues; d marks the D form. Ends that are not written are not given here. * marks the point of attachment. Pro(trans-4-NH2) = O=C([C@@H]1C[C@@H](N[*:3])CN1[*:1])[*:2]; Sni = (S)-nipecotic acid, O=C([C@H]1CCCN([*:1])C1)[*:2]; Bmf = rac-2-amino-3-phenyl-butyric acid; Gly(cPent) = N[C@H](C(=O)O)C1CCCC1; Hyp = O=C(O)[C@@H]1C[C@@H](O)CN1; dAoc(2) = CCCCCC[C@@H](N)C(=O)O; AR‑314‑145 = not defined here; AR‑314‑169 = not defined here; AR‑314‑170 = not defined here; Aoc(2) = CCCCCC[C@H](N)C(=O)O; NMeL = CN[C@@H](CC(C)C)C(=O)O; Phg = N[C@H](C(=O)O)c1ccccc1; orn(Me2) = not defined here; Octanoyl = CCCCCCCC(=O)*; 1270 = not defined here; 1888 = not defined here; Adx = not defined here; Che = not defined here; Oct = not defined here; aze = not defined here; leu = not defined here; thz = not defined here; Occ = octanoic acid
# T1: natriuretic peptide receptor-B (human)
# T1 chain: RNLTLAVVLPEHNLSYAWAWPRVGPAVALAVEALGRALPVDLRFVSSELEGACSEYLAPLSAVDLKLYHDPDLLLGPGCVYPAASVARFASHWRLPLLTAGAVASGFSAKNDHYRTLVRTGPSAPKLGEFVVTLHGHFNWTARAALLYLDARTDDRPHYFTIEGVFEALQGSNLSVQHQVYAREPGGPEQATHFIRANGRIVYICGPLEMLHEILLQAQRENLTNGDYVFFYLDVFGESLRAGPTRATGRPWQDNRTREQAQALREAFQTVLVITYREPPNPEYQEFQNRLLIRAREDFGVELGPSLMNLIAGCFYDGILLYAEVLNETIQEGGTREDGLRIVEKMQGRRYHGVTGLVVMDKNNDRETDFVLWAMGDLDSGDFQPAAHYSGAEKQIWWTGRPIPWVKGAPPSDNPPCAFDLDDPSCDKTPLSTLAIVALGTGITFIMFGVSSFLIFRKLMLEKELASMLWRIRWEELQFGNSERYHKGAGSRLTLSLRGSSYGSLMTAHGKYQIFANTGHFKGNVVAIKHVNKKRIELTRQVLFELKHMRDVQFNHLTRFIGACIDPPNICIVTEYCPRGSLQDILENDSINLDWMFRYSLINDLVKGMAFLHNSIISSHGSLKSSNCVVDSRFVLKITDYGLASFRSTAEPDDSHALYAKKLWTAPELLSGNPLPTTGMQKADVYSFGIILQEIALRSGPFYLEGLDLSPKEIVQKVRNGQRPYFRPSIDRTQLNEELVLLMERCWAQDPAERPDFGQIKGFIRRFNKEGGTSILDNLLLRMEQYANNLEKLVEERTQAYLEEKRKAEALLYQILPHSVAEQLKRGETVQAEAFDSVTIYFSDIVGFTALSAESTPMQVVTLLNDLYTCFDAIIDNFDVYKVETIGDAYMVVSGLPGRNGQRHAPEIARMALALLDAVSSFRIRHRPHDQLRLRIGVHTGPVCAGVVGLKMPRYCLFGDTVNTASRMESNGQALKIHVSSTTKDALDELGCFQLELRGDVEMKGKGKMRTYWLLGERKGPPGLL
# Target: T1, natriuretic peptide receptor-B
# Assay: cell-based or functional assay
row,"EC50 group, cGMP in GTM-3 cells",Binder
1,≤ 15 µM,[Occ][Sni]F[leu]L[Hyp][NMeL][Bmf]RI-NH2 (reading uncertain; also: printed as Occ-Sni-Phe-leu-Leu-Hyp-Nml-Bmf-Arg-Ile-NH2) [JAL-1857]
2,≤ 5 µM,[Occ][Sni]F[orn(Me2)]L[Hyp][NMeL]VP[Che] (reading uncertain; also: printed as Occ-Sni-Phe-orn(Me2)-Leu-Hyp-Nml-Val-Pro-Che) [JAL-1845]
3,≤ 15 µM,Octanoyl-[aze]FGLKLDRI-NH2 (reading uncertain; also: printed as Occ-aze-Phe-Gly-Leu-Lys-Leu-Asp-Arg-Ile-NH2) [JAL-0740]
4,≤ 5 µM,[Oct][Sni]F[leu]L[Hyp][NMeL]VR[Che] (reading uncertain; also: printed as Oct-Sni-Phe-leu-Leu-Hyp-Nml-Val-Arg-Che) [JAL-1848]
5,≤ 5 µM,1888-[Aoc(2)][Sni]FLL[Hyp][NMeL]DRI-NH2 (not fully specified (some residues); printed as (1888)-Hgl-Sni-Phe-leu-Leu-Hyp-Nml-Asp-Arg-Ile-NH2; reading uncertain) [JAL-1806]
6,≤ 15 µM,[Occ][Sni]F[leu]L[Hyp][NMeL][AR‑314‑145]RI-NH2 (reading uncertain; also: printed as Occ-Sni-Phe-leu-Leu-Hyp-Nml-(AR-314-145)-Arg-Ile-NH2) [JAL-1864]
7,≤ 5 µM,[Oct][Sni]F[orn(Me2)]L[Hyp][NMeL]VR[Che] (reading uncertain; also: printed as Oct-Sni-Phe-orn(Me2)-Leu-Hyp-Nml-Val-Arg-Che) [JAL-1851]
8,≤ 15 µM,[Occ][Sni]F[leu]L[Hyp][NMeL][Phg]RI-NH2 (reading uncertain; also: printed as Occ-Sni-Phe-leu-Leu-Hyp-Nml-Phg-Arg-Ile-NH2) [JAL-1858]
9,≤ 5 µM,[Occ][Sni]F[orn(Me2)]L[Pro(trans-4-NH2)][NMeL]VP[Che] (reading uncertain; also: printed as Occ-Sni-Phe-orn(Me2)-Leu-Tap-Nml-Val-Pro-Che) [JAL-1846]
10,≤ 1 µM,[Oct][Sni]F[leu]L[Pro(trans-4-NH2)][NMeL]DR[Che] (reading uncertain; also: printed as Oct-Sni-Phe-leu-Leu-Tap-Nml-Asp-Arg-Che) [JAL-1843]
11,≤ 5 µM,1888-[dAoc(2)][Sni]FLL[Hyp][NMeL]DRI-NH2 (not fully specified (some residues); printed as 1888-hgl-Sni-Phe-leu-Leu-Hyp-Nml-Asp-Arg-Ile-NH2; reading uncertain) [JAL-1837]
12,≤ 5 µM,H-[Adx][dAoc(2)][Sni]F[leu]L[Hyp][NMeL]DRI-NH2 (reading uncertain; also: printed as H-Adx-hgl-Sni-Phe-leu-Leu-Hyp-Nml-Asp-Arg-Ile-NH2) [JAL-1838]
13,≤ 15 µM,[AR‑314‑170]F[leu]L[Hyp][NMeL]DRI-NH2 (reading uncertain; also: printed as (AR-314-170)-Phe-leu-Leu-Hyp-Nml-Asp-Arg-Ile-NH2) [JAL-1869-2]
14,≤ 1 µM,H-[Adx][Aoc(2)][Sni]FLL[Hyp][NMeL]DRI-NH2 (not fully specified (residue 5); printed as H-Adx-Hgl-Sni-Phe-leu-Leu-Hyp-Nml-Asp-Arg-Ile-NH2; reading uncertain) [JAL-1808]
15,≤ 5 µM,[Occ][Sni]F[leu]L[Hyp][NMeL][Gly(cPent)]RI-NH2 (reading uncertain; also: printed as Occ-Sni-Phe-leu-Leu-Hyp-Nml-Cpg-Arg-Ile-NH2) [JAL-1859]
16,≤ 5 µM,[Oct][Sni]F[leu]L[Pro(trans-4-NH2)][NMeL]VR[Che] (reading uncertain; also: printed as Oct-Sni-Phe-leu-Leu-Tap-Nml-Val-Arg-Che) [JAL-1849]
17,≤ 15 µM,[Oct][Sni]F[orn(Me2)]L[Hyp][NMeL]VP[Che] (reading uncertain; also: printed as Oct-Sni-Phe-orn(Me2)-Leu-Hyp-Nml-Val-Pro-Che) [JAL-1847]
18,≤ 5 µM,[AR‑314‑169]F[leu]L[Hyp][NMeL]DRI-NH2 (reading uncertain; also: printed as (AR-314-169)-Phe-leu-Leu-Hyp-Nml-Asp-Arg-Ile-NH2) [JAL-1868-2]
19,≤ 15 µM,Octanoyl-[Aoc(2)][Sni]FLL[Hyp][NMeL]DRI-NH2 (not fully specified (some residues); printed as Occ-Hgl-Sni-Phe-leu-Leu-Hyp-Nml-Asp-Arg-Ile-NH2) [JAL-1807]
20,≤ 5 µM,[Oct][Sni]F[leu]L[Pro(trans-4-NH2)][NMeL]VP[Che] (reading uncertain; also: printed as Oct-Sni-Phe-leu-Leu-Tap-Nml-Val-Pro-Che) [JAL-1844]
21,≤ 15 µM,Octanoyl-[thz]FGLKLDRI-NH2 (reading uncertain; also: printed as Occ-thz-Phe-Gly-Leu-Lys-Leu-Asp-Arg-Ile-NH2) [JAL-0739]
22,≤ 15 µM,1270-[Aoc(2)][Sni]FLL[Hyp][NMeL]DRI-NH2 (not fully specified (some residues); printed as (1270)-Hgl-Sni-Phe-leu-Leu-Hyp-Nml-Asp-Arg-Ile-NH2; reading uncertain) [JAL-1805]
23,≤ 1 µM,[Occ][Sni]F[orn(Me2)]L[Pro(trans-4-NH2)][NMeL]VR[Che] (reading uncertain; also: printed as Occ-Sni-Phe-orn(Me2)-Leu-Tap-Nml-Val-Arg-Che) [JAL-1850]
